Publication PMC2860604

Legend:
[1] = target: Wildtype (WT) construct of bZIP domain of human Jun (human); experiment: SEC-MALS
Jun bZIP ΔL543 = target: T1, Jun bZIP ΔL543 (human, UniProt P05412 251-293); experiment: ITC
T1 chain: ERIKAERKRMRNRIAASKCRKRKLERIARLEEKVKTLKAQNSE

Jun bZIP domain WT = Jun bZIP domain WT (human, UniProt P05412 252-315); experiment: ITC
Jun bZIP ΔL5 = Jun bZIP ΔL5 (human, UniProt P05412 251-307); experiment: ITC
Jun bZIP ΔL54 = target: T2, Jun bZIP ΔL54 (human, UniProt P05412 251-300); experiment: ITC
T2 chain: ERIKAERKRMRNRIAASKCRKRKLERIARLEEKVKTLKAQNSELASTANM

Jun bZIP ΔL5432 = target: T3, Jun bZIP ΔL5432 (human, UniProt P05412 251-286); experiment: ITC
T3 chain: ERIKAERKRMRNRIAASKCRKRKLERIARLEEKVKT

Jun bZIP ΔL54321 = target: T4, Jun bZIP ΔL54321 (human, UniProt P05412 251-279); experiment: ITC
T4 chain: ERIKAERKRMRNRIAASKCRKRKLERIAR

Chain of Jun bZIP domain WT (P05412 252-315): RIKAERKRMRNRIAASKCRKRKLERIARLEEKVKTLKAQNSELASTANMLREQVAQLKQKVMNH

Question: Which stoichiometry N [1] does the source give for “Wildtype (WT) construct of bZIP domain of human Jun (domain or fragment)” here?
Answer: Its stoichiometry N is 2.

B1: TRE duplex (dsDNA)
DNA 1: CGCGTGACTCACCCC
DNA 2: GGGGTGAGTCACGCG
Question: With B1 as the molecule, how does the Kd (Jun bZIP ΔL543) read?
Answer: Its Kd is 14.8 ± 1.67 µM.

Question: What about the Kd (Jun bZIP domain WT) of the same molecule?
Answer: Its Kd is 250 ± 10 nM.

Question: What about the Kd (Jun bZIP ΔL5) of the same molecule?
Answer: The Kd was 1260 ± 210 nM.

Question: What about the Kd (Jun bZIP ΔL54) of the same molecule?
Answer: Its Kd is 6.14 ± 0.27 µM.

Question: Does B1 bind (Jun bZIP ΔL5432)?
Answer: Result: no binding

Question: Does B1 bind (Jun bZIP ΔL54321)?
Answer: Result: no binding
